This data set is described as follows: RP-HPLC chromatogram of recombinant hirudin HV1 in water (FIG. 1). It counts as physicochemical. The note with it: 1 mg/ml hirudin in water. How it is done:
RP-HPLC method: A LiChroCART 125-4 column is used (Merck LiChrospher 100 RP-18 5pm). Solvent A is 0.5% ammoniumacetate in acetonitrile/water (10:90), (v:v); solvent B is 0.5% ammoniumacetate in acetonitrile/water (25:75). The elution is performed at 45° C. using a flow rate of 0.5 ml/min. The binary elution is a linear gradient starting at time zero with 23% solvent B and reaching 46% solvent B after 24 minutes. After 2 min at 70% solvent B the column is equilibrated for 7 rain at 23% solvent B.
A typical chromatogram of recombinant hirudin HV1 (CGP 39393) in water using the RP-HPLC (1 mg/ml hirudin) method is shown in FIG. 1.
In FIG. 1, the relative area of the main peak is 95.15%. Storage of hirudin in water at room temperature results in an increase of by products with time. […] The changes which occur can be accelerated by using temperature stress experiments i.e. by storage at elevated temperatures.

The source of these data is patent US5733874A, “Stable dry powders” (Novartis Corp., priority 1994, dated 1998).

Take desulphatohirudin HV1 [CGP 39393]: the “relative area of the main peak” value came to 95.15%.
